Results taken from US20110318339A1.

Columns and labels:
[1] = target: rHuman ErbB2/Fc Chimera, CF (Cat# 1129-ER, R&D Systems) (human) (UniProt P04626); assay: Multispot ECL; Fab 15 nM; blank 261
[2] = target: rHuman EGF R/Fc Chimera, CF (Cat# 344-ER, R&D Systems) (human) (UniProt P00533); assay: Multispot ECL; Fab 15 nM; blank 261
[3] = target: rHuman HGF R/c-MET/Fc Chimera, CF (Cat# 358-MT/CF, R&D Systems) (human) (UniProt P08581); assay: Multispot ECL; Fab 15 nM; blank 261
[4] = target: rHuman IGF-1 sR, (IGF-1 sR), CF (Cat# 391-GR, R&D Systems) (human) (UniProt P08069); assay: Multispot ECL; Fab 15 nM; blank 261
[5] = target: rHuman ErbB2/Fc Chimera, CF (Cat# 1129-ER, R&D Systems) (human) (UniProt P04626); assay: Multispot ECL; Fab 7.5 nM; blank 217
[6] = target: rHuman EGF R/Fc Chimera, CF (Cat# 344-ER, R&D Systems) (human) (UniProt P00533); assay: Multispot ECL; Fab 7.5 nM; blank 217
[7] = target: rHuman HGF R/c-MET/Fc Chimera, CF (Cat# 358-MT/CF, R&D Systems) (human) (UniProt P08581); assay: Multispot ECL; Fab 7.5 nM; blank 217
[8] = target: rHuman IGF-1 sR, (IGF-1 sR), CF (Cat# 391-GR, R&D Systems) (human) (UniProt P08069); assay: Multispot ECL; Fab 7.5 nM; blank 217
[9] = target: rHuman ErbB2/Fc Chimera, CF (Cat# 1129-ER, R&D Systems) (human) (UniProt P04626); assay: Multispot ECL; Fab 30 nM; blank 213
[10] = target: rHuman EGF R/Fc Chimera, CF (Cat# 344-ER, R&D Systems) (human) (UniProt P00533); assay: Multispot ECL; Fab 30 nM; blank 213
[11] = target: rHuman HGF R/c-MET/Fc Chimera, CF (Cat# 358-MT/CF, R&D Systems) (human) (UniProt P08581); assay: Multispot ECL; Fab 30 nM; blank 213
[12] = target: rHuman IGF-1 sR, (IGF-1 sR), CF (Cat# 391-GR, R&D Systems) (human) (UniProt P08069); assay: Multispot ECL; Fab 30 nM; blank 213
[13] = target: rHuman ErbB2/Fc Chimera, CF (Cat# 1129-ER, R&D Systems) (human) (UniProt P04626); assay: Multispot ECL; Fab 3.8 nM; blank 198
[14] = target: rHuman EGF R/Fc Chimera, CF (Cat# 344-ER, R&D Systems) (human) (UniProt P00533); assay: Multispot ECL; Fab 3.8 nM; blank 198
[15] = target: rHuman HGF R/c-MET/Fc Chimera, CF (Cat# 358-MT/CF, R&D Systems) (human) (UniProt P08581); assay: Multispot ECL; Fab 3.8 nM; blank 198
[16] = target: rHuman IGF-1 sR, (IGF-1 sR), CF (Cat# 391-GR, R&D Systems) (human) (UniProt P08069); assay: Multispot ECL; Fab 3.8 nM; blank 198
[17] = target: rHuman ErbB2/Fc Chimera, CF (Cat# 1129-ER, R&D Systems) (human) (UniProt P04626); assay: Multispot ECL; Fab 480 nM; blank 362
[18] = target: rHuman EGF R/Fc Chimera, CF (Cat# 344-ER, R&D Systems) (human) (UniProt P00533); assay: Multispot ECL; Fab 480 nM; blank 362
[19] = target: rHuman HGF R/c-MET/Fc Chimera, CF (Cat# 358-MT/CF, R&D Systems) (human) (UniProt P08581); assay: Multispot ECL; Fab 480 nM; blank 362
[20] = target: rHuman IGF-1 sR, (IGF-1 sR), CF (Cat# 391-GR, R&D Systems) (human) (UniProt P08069); assay: Multispot ECL; Fab 480 nM; blank 362
[21] = target: rHuman ErbB2/Fc Chimera, CF (Cat# 1129-ER, R&D Systems) (human) (UniProt P04626); assay: Multispot ECL; Fab 120 nM; blank 363
[22] = target: rHuman EGF R/Fc Chimera, CF (Cat# 344-ER, R&D Systems) (human) (UniProt P00533); assay: Multispot ECL; Fab 120 nM; blank 363
[23] = target: rHuman HGF R/c-MET/Fc Chimera, CF (Cat# 358-MT/CF, R&D Systems) (human) (UniProt P08581); assay: Multispot ECL; Fab 120 nM; blank 363
[24] = target: rHuman IGF-1 sR, (IGF-1 sR), CF (Cat# 391-GR, R&D Systems) (human) (UniProt P08069); assay: Multispot ECL; Fab 120 nM; blank 363
[25] = target: rHuman ErbB2/Fc Chimera, CF (Cat# 1129-ER, R&D Systems) (human) (UniProt P04626); assay: Multispot ECL; Fab 60 nM; blank 237
[26] = target: rHuman EGF R/Fc Chimera, CF (Cat# 344-ER, R&D Systems) (human) (UniProt P00533); assay: Multispot ECL; Fab 60 nM; blank 237
[27] = target: rHuman HGF R/c-MET/Fc Chimera, CF (Cat# 358-MT/CF, R&D Systems) (human) (UniProt P08581); assay: Multispot ECL; Fab 60 nM; blank 237
[28] = target: rHuman IGF-1 sR, (IGF-1 sR), CF (Cat# 391-GR, R&D Systems) (human) (UniProt P08069); assay: Multispot ECL; Fab 60 nM; blank 237
[29] = target: rHuman ErbB2/Fc Chimera, CF (Cat# 1129-ER, R&D Systems) (human) (UniProt P04626); assay: Multispot ECL; Fab 240 nM; blank 316
[30] = target: rHuman EGF R/Fc Chimera, CF (Cat# 344-ER, R&D Systems) (human) (UniProt P00533); assay: Multispot ECL; Fab 240 nM; blank 316
[31] = target: rHuman HGF R/c-MET/Fc Chimera, CF (Cat# 358-MT/CF, R&D Systems) (human) (UniProt P08581); assay: Multispot ECL; Fab 240 nM; blank 316
[32] = target: rHuman IGF-1 sR, (IGF-1 sR), CF (Cat# 391-GR, R&D Systems) (human) (UniProt P08069); assay: Multispot ECL; Fab 240 nM; blank 316

B1: Fab VH6-1_IGHD3-3*01_IGHJ4*01 & V4-3_IGLJ4*01 (Fab, V domains shown)
VH: QVQLQQSGPGLVKPSQTLSLTCAISGDSVSSNSAAWNWIRQSPSRGLEWLGRTYYRSKWYNDYAVSVKSRITINPDTSKNQFSLQLNSVTPEDTAVYYCAREYYDFWSGYYTDYFDYWGQGTLVTVSS
VL: QPVLTQPTSLSASPGASARLTCTLRSGINLGSYRIFWYQQKPESPPRYLLSYYSDSSKHQGSGVPSRFSGSKDASSNAGILVISGLQSEDEADYYCMIWHSSASFVFGGGTQLIIL
- ECL signal [1]: 713
- ECL signal [2]: 584
- ECL signal [3]: 694
- ECL signal [4]: 705
- ECL signal [5]: 695
- ECL signal [6]: 582
- ECL signal [7]: 558
- ECL signal [8]: 642
- ECL signal [9]: 726
- ECL signal [10]: 585
- ECL signal [11]: 640
- ECL signal [12]: 697
- ECL signal [13]: 714
- ECL signal [14]: 511
- ECL signal [15]: 519
- ECL signal [16]: 463
- ECL signal [17]: 965
- ECL signal [18]: 877
- ECL signal [19]: 951
- ECL signal [20]: 741
- ECL signal [21]: 822
- ECL signal [22]: 658
- ECL signal [23]: 785
- ECL signal [24]: 813
- ECL signal [25]: 777
- ECL signal [26]: 679
- ECL signal [27]: 623
- ECL signal [28]: 654
- ECL signal [29]: 833
- ECL signal [30]: 690
- ECL signal [31]: 834
- ECL signal [32]: 625
